Assay results from the Human Domainome abundance scans (Beltran et al. 2025).

B1: Tyrosine-protein kinase Lck, residues 63 to 120; numbered along this chain, P06239 (parent)
chain: DNLVIALHSYEPSHDGDLGFEKGEQLRILEQSGEWWKAQSLTTGQEGFIPFNFVAKAN

Variants of: B1
Experiment: abundance fitness (aPCA) (normalised: wild type 0, dead -1); higher = more abundant; growth selection in yeast, the domain comes from the species named
Conditions: Homo sapiens

Abundance fitness, by site and new letter:
L29: G -0.734 | R -0.591 | P -1.05 | H -0.184 | Q -0.401 | A -0.645 | C -0.441 | S -0.44 | Y -0.227 | W -0.87 | I -0.339 | T -0.283 | K -0.325 | F -0.527 | D -0.852 | M -0.315
E34: Q -0.149 | I -0.142 | A -0.065 | S -0.054 | Y -0.026 | V -0.076 | R 0.006 | P -0.183 | M -0.262 | G -0.13 | C -0.276 | L -0.225 | T -0.092 | F -0.138 | N -0.203 | W -0.34 | H -0.205
I28: M -0.662 | F -0.977 | T -0.683 | C -0.658 | H -1.03 | V -0.108 | Q -0.924 | W -0.941 | K -0.903 | A -0.554 | R -0.874 | D -0.833 | G -0.754 | E -0.969 | Y -0.459 | L -0.074 | S -0.645 | N -0.585 | P -0.885
E21: P -0.914 | W -0.481 | V 0.022 | R -0.052 | Q 0.007 | A -0.062 | M -0.134 | Y -0.415 | F -0.515 | H -0.001 | D -0.205 | T -0.129 | N -0.248 | L -0.11 | S -0.042 | G -0.349
G19: R -0.142 | D -0.648 | F -0.567 | N -0.397 | Y -0.55 | M -0.31 | Q -0.256 | H -0.299 | T -0.375 | K -0.108 | I -0.538 | L -0.604 | P -0.16 | E -0.393 | W -0.823 | C -0.16 | V -0.47 | A -0.039
Q25: S -0.053 | M 0.022 | C -0.096 | D -0.357 | Y -0.047 | H -0.143 | I -0.181 | K 0.09 | V -0.017 | E -0.021 | W -0.169 | A -0.165 | T 0.078 | N 0.069 | P -0.276
L26: H -0.728 | W -0.864 | C -1.28 | R -0.726 | V -0.781 | F -0.28 | P -0.909 | N -0.787 | K -0.919 | Q -0.572 | Y -0.929 | E -0.596 | M -0.126 | A -0.987 | G -0.704 | S -0.84 | I -0.648
W35: M 0.01 | G -0.303 | A -0.044 | I -0.049 | L -0.029 | Y -0.131 | C -0.185 | N -0.128 | H -0.081 | S 0.002 | D -0.444 | R 0.091 | Q 0.069
A38: G -0.483 | F -0.771 | C -0.4 | E -0.934 | K -0.927 | D -1.01 | I -0.788
G23: E -0.823 | S -0.635 | K -0.792 | D -0.477 | F -0.573 | V -1.04 | W -0.648 | N -0.066 | M -0.792 | L -0.832 | Q -0.903 | P -1.01 | H -0.397 | T -0.917 | C -0.829 | I -0.79 | Y -0.655
E30: D -0.087 | Q -0.161 | R -0.285 | W -0.503 | G -0.21 | K -0.248 | H -0.247 | P -0.752 | A -0.115 | Y -0.362 | C -0.265 | M -0.278 | T -0.293 | I -0.586 | V -0.17 | L -0.601 | F -0.45
R27: T -0.24 | K -0.154 | N -0.471 | E -0.022 | W -0.44 | I -0.162 | C -0.208 | S -0.465 | V -0.062 | D -0.421 | G -0.881 | P -0.914 | M -0.309 | L -0.056 | Y -0.193 | H -0.049 | F -0.448
E24: W -0.704 | A -0.357 | M -0.673 | K -0.82 | V -0.835 | P -0.891 | F -0.997 | G -0.725 | H -0.774 | S -0.506 | D -0.095 | I -0.758 | Y -0.829 | R -0.902 | Q -0.385 | C -0.628 | N -0.608 | L -0.999 | T -0.754
L18: I -0.176 | S -0.884 | M -0.295 | F -0.449 | N -0.722 | Q -0.876 | R -0.86 | W -0.978 | H -0.732 | Y -0.725 | G -0.717 | V -0.441 | T -0.714 | K -0.946
F20: N -0.7 | P -0.818 | S -0.949 | K -0.705 | G -0.921 | M -0.293 | Q -0.825 | A -0.52 | Y -0.756 | V -0.222 | R -0.976 | W -1.04 | I -0.47 | L -0.411 | C -0.541 | D -0.845 | T -0.406 | H -0.836
W36: A 0.032 | D -0.614 | S -0.408 | P -0.298 | K -0.521 | R -0.213 | G -0.283 | L -0.101 | I -0.617 | F -0.181 | M -0.075 | Y -0.074 | H -0.585 | T -0.029 | E -0.881 | C -0.046 | V -0.1
Q31: R 0.054 | P -0.235 | I -0.552 | E 0.025 | A 0.032 | C -0.097 | V -0.354 | Y -0.234 | L -0.707 | W -0.161 | T -0.291 | H -0.301 | F -0.5 | D -0.011 | K 0.003
S32: Q 0.182 | R 0.012 | I -0.226 | T 0.05 | Y -0.082 | E 0.182 | P -0.407 | N 0.101 | H -0.302 | D -0.07 | K 0.06 | G -0.071 | L -0.377 | A -0.067 | W -0.455
K22: G -0.674 | A -0.174 | L -0.625 | C -0.303 | T -0.187 | M -0.514 | N -0.777 | F -0.603 | I -0.526 | Q -0.371 | W -0.928 | P -0.801 | H -0.593 | R -0.252
K37: S -0.321 | M -0.307 | A -0.615 | I -0.151 | F -0.229 | T -0.267 | N -0.548 | Q -0.406 | G -0.96 | E -0.435 | R -0.046 | Y -0.177 | P -0.808 | C -0.593 | V -0.232 | W -0.152 | D -1.16 | H -0.388
G33: D -0.467 | L -0.812 | H -0.633 | S -0.166 | Y -0.922 | C -0.491 | N -0.145 | P -0.544 | A -0.398 | Q -0.767 | K -0.545 | F -0.853 | W -0.929 | E -0.491 | V -0.881
